Measured values reported in patent US12662531B2, “CLDN18.2 antibody and use thereof” (FUTUREGEN BIOPHARMACEUTICAL (BEIJING) CO., LTD., priority 2019, dated 2026).

Columns and labels:
[1] = test system: SNU601 cells expressing CLDN18.2; assay: Endocytosis of antibody after binding to SNU601 cells stably expressing CLDN18.2; assay type: cell-based; conditions: 10 μg/ml, 4 h
Protocol: It has been reported that the binding of some antibodies to cell surface antigens can cause endocytosis of antigen and antibody complexes, thereby reducing the expression level of the cell surface antigens and accelerating antibody metabolism in vivo (Schrama D et al., 2006, Nat Rev Drug Discov). In this example, the ability of antibodies 18.2-A1, 18.2-A3, 18.2-A4 and 18.2-A6 to be endocytosed by cells was tested in SNU601 cells stably expressing CLDN18.2. […] Subsequently, they were washed at 4° C. and stained with PE-labeled anti-human IgG antibody. After fixation with 4% formalin, antibody binding on the cell surface was tested by flow cytometry.

[2] = biological target: T1, CLDN18.2 (CT26-CLDN18.2 cells) (Homo sapiens, UniProt P56856); assay: Flow cytometry binding of recombinant antibodies to CT26-CLDN18.2 cells; conditions: 4° C. 1 hour
T1 construct: expressed in transfected cells; host or cells: CT26 cells (mouse), lentiviral transduction, puromycin selection
Protocol: Binding activities of the recombinant monoclonal antibodies to CLDN18.2 were determined. Specifically, well-grown cell lines stably expressing CT26-CLDN18.2 were taken. The cells were washed with PBS, mixed with the fold-diluted antibody and incubated at 4° C. for 1 hour. The cells were washed once with flow cytometry buffer, PE-labeled anti-human IgG antibody was added, and incubated at 4° C. for 30 minutes. The supernatant was removed by centrifugation, and after the cells were washed with flow cytometry buffer, the fluorescence intensity on the surface of the cells was tested by flow cytometry. The relative binding activity of each antibody was calculated using the average fluorescence intensity.
The binding activity of the defucosylated antibodies 18.2-A1F, 18.2-A3F and 18.2-A4F to CLDN18.2 as compared to the binding activity of 18.2-A1, 18.2-A3 and 18.2-A4 to CLDN18.2 was tested by flow cytometry, the method of which is as described in Example 5, and the experimental results are shown in FIG. 7.

[3] = biological target: T2, CLDN18.1 (CLDN18.1-Flag 293t cells) (Homo sapiens, UniProt P56856); assay: Binding specificity, 293t cells expressing CLDN18.1-Flag, flow cytometry; conditions: 10 μg/ml antibody, 4° C. 1 hour
T2 construct: expressed in transfected cells; host or cells: 293t cells, transient transfection
From the text: (§1) Human Claudin18 proteins include two homologues, i.e., CLDN18.1 and CLDN18.2, which share exons other than exon 1, and the exon 1 sequences of CLDN18.1 and CLDN18.2 are highly similar with only 8 different amino acids in the first extracellular region. The exon 1 of CLDN18.1 and the exon 1 of CLDN18.2 are specifically expressed in different tissues driven by different promoters. Among them, CLDN18.1 is specifically expressed in lung epithelial cells, while CLDN18.2 is specifically expressed in gastric epithelial cells. To identify the specificity of the screened CLDN18.2 antibodies, binding of the antibodies to CLDN18.1 and CLDN18.2 was tested.
(§2) Specifically, well-grown 293t cells were taken to transiently express flag-tagged CLDN18.1 (CLDN18.1-Flag) or CLDN18.2 (CLDN18.2-Flag). 48 hours after transfection, the cells were digested with trypsin. After washed with flow cytometry buffer, the cells were mixed with 10 μg/ml of isotype control antibody or one of the above five CLDN18.2 antibodies in 200 μl of flow cytometry buffer, and were incubated at 4° C. for 1 hour. Subsequently, the cells were washed once with flow cytometry buffer, PE-labeled anti-human IgG antibody was added, and incubated at 4° C. for 30 min. The supernatant was removed by centrifugation, wash was performed twice with flow cytometry buffer, and the cells were fixed in a fix solution containing 1% paraformaldehyde and 0.5% triton-X100 and the cell membrane was permeabilized. Subsequently, the cells were incubated with APC-labeled anti-flag antibody for 30 min and tested by flow cytometry.

[4] = biological target: T3, CLDN18.2 (CLDN18.2-Flag 293t cells) (Homo sapiens, UniProt P56856); assay: Binding specificity, 293t cells expressing CLDN18.2-Flag, flow cytometry; conditions: 10 μg/ml antibody, 4° C. 1 hour
T3 construct: expressed in transfected cells; host or cells: 293t cells, transient transfection
From the text: as §1, §2

[5] = test system: control CT26 cell line; assay: Flow cytometry binding to control CT26 cell line; conditions: results not shown
[6] = test system: untransfected Jurkat cells; assay: Flow cytometry binding to untransfected Jurkat cells; conditions: results not shown
[7] = test system: human FcγRIIIa (V158) on FcγRIIIa-Jurkat cells; assay: Flow cytometry binding to FcγRIIIa-Jurkat cells
From the text: We next further tested the binding activity of the CLDN18.2 antibodies and their defucosylated forms to FcγRIIIa expressed on the cell surface. Specifically, the human FcγRIIIa (V158, high FC binding subtype) gene was cloned into a mammalian cell expression vector carrying a puromycin screening marker and transfected into a Jurkat cell line. A cell line stably expressing FcγRIIIa (FcγRIIIa-Jurkat) was screened with puromycin. In addition, NK92MI is a human NK cell line that naturally expresses the FcγRIIIa receptor (F158, low FC binding subtype). The binding ability of the CLDN18.2 antibodies and their defucosylated forms to FcγRIIIa expressed on the surface of FcγRIIIa-jurkat cells and NK92MI cells was tested by flow cytometry. The specific flow cytometry assay is described with reference to Example 6.

IMAB362: CLDN18.2 specific antibody (IMAB362, Ganymed) [reference compound]
binding to SNU601 cells expressing CLDN18.2 under 4° C. incubation [1]: bound well | antibody staining/binding on the cell surface under 37° C. incubation [1]: decreased significantly

B1: 18.2-A2: recombinant monoclonal CLDN18.2 antibody, VH SEQ ID NO: 11, VL SEQ ID NO: 16 (antibody, V domains shown)
VH: EVQLVQSGAEVKKPGASVKVSCKASGYTFTSFWVGWVRQAPGQGLEWIGNVSPSDSYTNYNQKFKDRATLTVDKSTSTAYMELSSLRSEDTAVYYCTRLSSGNSFDYWGQGTLVTVSS
VL: DIVMTQSPDSLSVSLGERATINCKSSQSVLNSGNQKNYLTWYQQKPGQPPKLLIYWSSTKQSGVPDRFSGSGSGTDFTLTISSLQAEDVAVYYCQNAFSFPFTFGQGTKVEIK
modifications: 18.2-A2 VH; 18.2-A2 VL
binding to CT26 cell line expressing CLDN18.2 [2]: able to bind well | binding to CLDN18.1-positive cells [3]: none of the six antibodies bound | binding to CLDN18.2-flag transfected positive 293t cells [4]: able to bind well | binding to control CT26 cell line [5]: did not bind

B2: 18.2-A3: recombinant monoclonal CLDN18.2 antibody, VH SEQ ID NO: 21, VL SEQ ID NO: 26 (antibody, V domains shown)
VH: EVQLVQSGAEVKKPGASVKVSCKASGYTFTSYWLNWVRQAPGQGLEWIGSMYPSDSYTNYNQKFKDRATLTVDKSTSTAYMELSSLRSEDTAVYYCTRFSRGNSFDYWGQGTLVTVSS
VL: DIVMTQSPDSLTVALGERATINCKSSQSLLESGNQKNYLTWYQQKPGQPPKLLIYWSWAKNSGVPDRFSGSGSGTDFTLTISSLQAEDVAVYYCQNAYAFPFTFGQGTKVEIK
modifications: 18.2-A3 VH; 18.2-A3 VL
binding to CT26 cell line expressing CLDN18.2 [2]: able to bind well | binding to CLDN18.1-positive cells [3]: none of the six antibodies bound | binding to CLDN18.2-flag transfected positive 293t cells [4]: able to bind well | binding to control CT26 cell line [5]: did not bind | binding to SNU601 cells expressing CLDN18.2 under 4° C. incubation [1]: bound well | antibody staining/binding on the cell surface under 37° C. incubation [1]: still bound well | endocytosis by cells under 37° C. incubation [1]: did not undergo significant endocytosis

B3: 18.2-A4: recombinant monoclonal CLDN18.2 antibody, VH SEQ ID NO: 31, VL SEQ ID NO: 36 (antibody, V domains shown)
VH: EVQLVQSGAEVKKPGASVKVSCKASGYTFTSFWISWVRQAPGQGLEWIGNILPSDSYTNYNQKFKDRATLTVDKSTSTAYMELSSLRSEDTAVYYCTRYWRGNSFDYWGQGTLVTVSS
VL: DIVMTQSPDSLALALGERATINCKSSQSIINSGNQKNYLTWYQQKPGQPPKLLIYWGGTRHSGVPDRFSGSGSGTDFTLTISSLQAEDVAVYYCQNGYYSPFTFGQGTKVEIK
modifications: 18.2-A4 VH; 18.2-A4 VL
binding to CT26 cell line expressing CLDN18.2 [2]: able to bind well | binding to untransfected Jurkat cells [6]: not able to bind | binding to CLDN18.1-positive cells [3]: none of the six antibodies bound | binding to CLDN18.2-flag transfected positive 293t cells [4]: able to bind well | binding to control CT26 cell line [5]: did not bind | binding to SNU601 cells expressing CLDN18.2 under 4° C. incubation [1]: bound well | antibody staining/binding on the cell surface under 37° C. incubation [1]: still bound well | endocytosis by cells under 37° C. incubation [1]: did not undergo significant endocytosis | binding to FcγRIIIa-jurkat cells [7]: able to bind

B4: 18.2-A5: recombinant monoclonal CLDN18.2 antibody, VH SEQ ID NO: 41, VL SEQ ID NO: 46 (antibody, V domains shown)
VH: EVQLVQSGAEVKKPGASVKVSCKASGYTFTSSWVGWVRQAPGQGLEWIGNSYPSDSYTNYNQKFKDRATLTVDKSTSTAYMELSSLRSEDTAVYYCTRLGRGNSFDYWGQGTLVTVSS
VL: DIVMTQSPDSLTVALGERATINCKSSQSLIHSGNQKNYLTWYQQKPGQPPKLLIYWGLSKNSGVPDRFSGSGSGTDFTLTISSLQAEDVAVYYCQNSIYYPFTFGQGTKVEIK
modifications: 18.2-A5 VH; 18.2-A5 VL
binding to CT26 cell line expressing CLDN18.2 [2]: able to bind well | binding to CLDN18.1-positive cells [3]: none of the six antibodies bound | binding to CLDN18.2-flag transfected positive 293t cells [4]: able to bind well | binding to control CT26 cell line [5]: did not bind

B5: 18.2-A6: recombinant monoclonal CLDN18.2 antibody, VH SEQ ID NO: 55, VL SEQ ID NO: 60 (antibody, V domains shown)
VH: EVQLVQSGAEVKKPGASVKVSCKASGYTFTSYWLGWVRQAPGQGLEWIGIIYPSDSYTNYNQKFKDRATLTVDKSTSTAYMELSSLRSEDTAVYYCTRFWRGNSFDYWGQGTLVTVSS
VL: DIVMTQSPDSLTIGLGERATINCKSSQSLLNSGNQKNYLTWYQQKPGQPPKLLIYWAAGKESGVPDRFSGSGSGTDFTLTISSLQAEDVAVYYCQNGYSHPFTFGQGTKVEIK
modifications: 18.2-A6 VH; 18.2-A6 VL
binding to CT26 cell line expressing CLDN18.2 [2]: able to bind well | binding to CLDN18.1-positive cells [3]: none of the six antibodies bound | binding to CLDN18.2-flag transfected positive 293t cells [4]: able to bind well | binding to control CT26 cell line [5]: did not bind | binding to SNU601 cells expressing CLDN18.2 under 4° C. incubation [1]: bound well | antibody staining/binding on the cell surface under 37° C. incubation [1]: still bound well | endocytosis by cells under 37° C. incubation [1]: did not undergo significant endocytosis
